Data published in patent publication US20260256941A1.

Molecular target: PD-1 receptor on the surface of T cells (human) (UniProt Q15116)
Experiment: cell-based or functional assay

Chain of UniProt Q15116 (Q15116 25-288): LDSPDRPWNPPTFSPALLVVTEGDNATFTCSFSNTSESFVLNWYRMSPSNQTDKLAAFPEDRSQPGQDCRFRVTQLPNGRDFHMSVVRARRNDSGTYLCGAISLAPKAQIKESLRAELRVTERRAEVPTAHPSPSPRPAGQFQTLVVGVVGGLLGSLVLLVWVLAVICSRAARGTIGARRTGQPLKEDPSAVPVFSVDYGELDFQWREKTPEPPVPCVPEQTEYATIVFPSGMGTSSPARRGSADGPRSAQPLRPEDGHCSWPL

“PD-L1 traditional exosome (PD-L1 displayed by traditional engineering methods) (ligand)” was tested, and the percentage of activated (CD8+CD25+) T cells, flow cytometry; PD-L1 traditional exosome; unmodified exosome 34.1% was 22.5%.
